Source: US20220064272A1 (TAUC3 BIOLOGICS, published 2022)
Where “and” joins values, the source holds several entries; their conditions need not be identical. Equal entries are not always repeated. Each block holds one binder with its values, some of them ahead of it.

Assays:
[1] = molecular target: T1, TauC3 (C-terminally truncated tau fragment ending at aspartate 421 of htau40) (human, UniProt P10636 1-738); assay: binding ELISA on coated TauC3, OD650
T1 construct: Generated and purified by Genscript; also called Human TauC3; recombinant TauC3 protein
Outline: (§1)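 TauC3 antigen, made and purified by Genscript, was coated for a binding ELISA. The antibodies tested were chimeric or humanized IgG4κ expressed in ExpiCHO cells. Binding was recorded as absorbance at 650 nm, and EC50 came from the concentration-response of each antibody.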

[2] = molecular target: T2, full length Tau (2N4R, htau40) (human, UniProt P10636 1-758); assay: binding ELISA on coated FL Tau, OD650
T2 construct: Generated and purified by Genscript; also called FL Tau; FLT
Outline: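 Binding ELISA on coated full-length tau antigen, which was made and purified by Genscript. Antibody binding was read as absorbance at 650 nm.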

[3] = molecular target: T1, TauC3 (C-terminally truncated tau …); assay: binding ELISA on coated TauC3, OD650; remark: listed apart in the source
Outline: as §1

[4] = molecular target: T1, TauC3 (C-terminally truncated tau …); assay: binding ELISA on coated TauC3, OD650; remark: listed apart in the source
Outline: as §1

[5] = molecular target: T1, TauC3 (C-terminally truncated tau …); assay: binding ELISA on TauC3 after 21 days at 37 C in PBS or mouse, human, cynomolgus serum, with non-incubated control
Experimental: Purified samples of the chimeric and humanized antibodies were incubated in mouse, human and cynomolgus serum for 21 days. The binding of the Tau01 HMKE, HMKM, HMKN, HMKO, HMKP candidate antibodies which had been incubated in the 3 different serums were compared with an antibody incubated in PBS and a 4° C. positive control sample by binding ELISA to TauC3 (FIG. 37). The Tau01 HMKE, HMKM, HMKN, HMKO, HMKP candidate antibodies retained their binding capability after being incubated in mouse, human and cynomolgus serum.

[6] = molecular target: T1, TauC3 (C-terminally truncated tau …); assay: Biacore kinetics, TauC3 amine-coupled on CM5, antibody series, 1:1 global fit
Text: (§2) To determine the affinity of the binding interactions, a biacore kinetic assay was developed which involved immobilizing TauC3 on a CM5 chip via amine coupling and injecting a concentration series of the respective antibody over it.

[7] = molecular target: T1, TauC3 (C-terminally truncated tau …); assay: binding ELISA on coated TauC3, OD650; remark: listed apart in the source
Outline: as §1

[8] = molecular target: T1, TauC3 (C-terminally truncated tau …); assay: Biacore off-rate ranking, TauC3 amine-coupled on CM5, one antibody concentration; one-phase exponential decay fit
Experimental: (§3) To further evaluate the binding data observed on the Octet, an off-rate ranking experiment was performed on the Biacore 200 instrument. Biacore offers greater selectivity than the Octet and facilitated the immobilization of TauC3 onto a CM5 chip via amine coupling which stabilizes the antigen. This produces higher quality data with stable baselines and good reproducible responses. Once TauC3 is immobilized, one concentration (5 nM) of antibody is added, followed by a dissociation and regeneration step (Section 8.20). The off-rates were fitted using a two-phase decay model (FIG. 25B) or a one phase decay fitting only the second off-rate (FIG. 25A). The candidates were then ranked based on the off-rates obtained using the fits and compared. The data agreed with the Octet results (albeit with a different ranking order), highlighting Tau01 HMKM, HMKO, HMKP, HMKN and HMKE as the humanized variants with the slowest off-rates. The lack of binding of FL Tau to chimeric and a humanized candidate was also confirmed by Biacore by loading the antibody onto a Protein G chip and adding 250 nM FL Tau.

[9] = molecular target: T1, TauC3 (C-terminally truncated tau …); assay: binding ELISA on coated TauC3, OD650; remark: listed apart in the source
Outline: as §1

[10] = molecular target: T1, TauC3 (C-terminally truncated tau …); assay: binding ELISA on coated TauC3, OD650; remark: listed apart in the source
Outline: as §1

[11] = molecular target: T1, TauC3 (C-terminally truncated tau …); assay: SPR (Biacore) kinetics, TauC3 amine-coupled on CM5, 1:1 global fit
Outline: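 Each purified antibody was injected at a series of concentrations over a CM5 chip carrying amine-coupled purified antigen, with readout by Biacore surface plasmon resonance. A global fit gave Kd together with the association and dissociation rates. The fit model was 1:1.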

[12] = molecular target: T1, TauC3 (C-terminally truncated tau …); assay: binding ELISA on coated TauC3, OD650; remark: listed apart in the source
Outline: as §1

[13] = molecular target: T1, TauC3 (C-terminally truncated tau …); assay: binding ELISA on coated TauC3, OD650; remark: listed apart in the source
Outline: as §1

[14] = molecular target: T1, TauC3 (C-terminally truncated tau …); assay: binding ELISA on coated TauC3, OD650; right table (HM variants)
Outline: as §1

[15] = molecular target: T1, TauC3 (C-terminally truncated tau …); assay: binding ELISA on coated TauC3, OD650; left table (HC variants)
Outline: as §1

[16] = molecular target: T1, TauC3 (C-terminally truncated tau …); assay: binding ELISA, TauC3 coated
Outline: as §1

[17] = molecular target: T1, TauC3 (C-terminally truncated tau …); assay: Biacore off-rate ranking, TauC3 amine-coupled on CM5, one antibody concentration; two-phase decay fit, slow phase; set-up: unit not given here
Experimental: as §3

[18] = molecular target: T2, full length Tau (2N4R, htau40); assay: Octet, antibody on Protein G sensor, FL Tau in solution
Experimental: The TauC3 and FL Tau antigens were generated and purified by Genscript and supplied at a concentration of 2.54 mg/ml or 0.24 mg/ml respectively. Binding of the chimeric antibody to TauC3 and FL Tau was assayed by binding ELISA. […] No non-specific binding to either antigen could be observed with an isotype confirming the binding observed is specific. Binding of the mouse and chimeric Tau01 antibodies to purified TauC3, was measured using Bio-Layer Interferometry (OctetRed96, ForteBio Section 8.12). The mouse and chimeric antibodies were assayed against a concentration series from 20 nM-0.31 nM TauC3 (FIGS. 8A and B). Both the mouse and chimeric antibodies were capable of binding to TauC3 in a concentration-dependent manner. The binding of the mouse and chimeric antibodies was also tested against FL Tau but low signals or no binding was observed (FIGS. 8C and D) confirming the binding of the antibodies is specific to TauC3.

[19] = molecular target: T1, TauC3 (C-terminally truncated tau …); assay: SPR (Biacore) kinetics, TauC3 amine-coupled on CM5, antibody as analyte
Text: as §2

[20] = molecular target: T2, full length Tau (2N4R, htau40); assay: Biacore, antibody captured on Protein G chip, FL Tau injected [Fig. 26B]
Experimental: as §3

T1 sequence (P10636 other isoform, or with tags, fused parts or gaps): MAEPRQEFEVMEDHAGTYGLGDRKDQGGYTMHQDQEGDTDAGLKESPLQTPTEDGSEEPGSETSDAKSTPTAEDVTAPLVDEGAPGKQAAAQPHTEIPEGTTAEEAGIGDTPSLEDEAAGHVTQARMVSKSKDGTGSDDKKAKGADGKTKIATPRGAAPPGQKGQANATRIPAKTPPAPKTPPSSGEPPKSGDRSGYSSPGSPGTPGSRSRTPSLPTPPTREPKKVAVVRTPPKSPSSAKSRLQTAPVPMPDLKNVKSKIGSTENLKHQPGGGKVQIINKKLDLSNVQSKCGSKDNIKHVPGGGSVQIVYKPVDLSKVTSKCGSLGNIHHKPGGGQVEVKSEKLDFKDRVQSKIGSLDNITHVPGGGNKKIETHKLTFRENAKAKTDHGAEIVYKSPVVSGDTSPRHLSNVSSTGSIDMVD
T2 sequence (P10636 other isoform, or with tags, fused parts or gaps limits assumed): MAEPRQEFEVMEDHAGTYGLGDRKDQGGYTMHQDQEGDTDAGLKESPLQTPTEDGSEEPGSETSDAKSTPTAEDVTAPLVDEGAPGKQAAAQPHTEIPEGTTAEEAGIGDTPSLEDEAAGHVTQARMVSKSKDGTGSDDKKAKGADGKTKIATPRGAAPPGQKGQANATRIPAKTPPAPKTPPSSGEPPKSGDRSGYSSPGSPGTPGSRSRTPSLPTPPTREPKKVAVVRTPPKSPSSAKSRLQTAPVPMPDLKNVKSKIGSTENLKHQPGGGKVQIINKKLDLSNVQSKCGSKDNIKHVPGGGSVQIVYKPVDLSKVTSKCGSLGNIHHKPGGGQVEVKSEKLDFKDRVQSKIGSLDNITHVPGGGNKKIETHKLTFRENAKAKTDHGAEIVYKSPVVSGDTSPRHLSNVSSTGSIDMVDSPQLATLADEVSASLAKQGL

EC50 [1]: 0.474 nM
binding result [2]: no binding (tested: about 30 nM)
EC50 [3]: 0.58 nM and 0.54 nM and 0.63 nM
EC50 [4]: 0.71 nM
EC50 (read off the curve) [5]: ~0.5 nM
Kd [6]: 0.0574 nM
EC50 [7]: 0.724 nM
koff [8]: 0.000414 s⁻¹
EC50 [9]: 0.724 nM
EC50 [10]: 0.474 nM
Kd [11]: 0.057 nM
koff [11]: 0.000741 s⁻¹
kon [11]: 1.29e+07 M⁻¹ s⁻¹
EC50 [12]: 0.474 nM
EC50 [13]: 0.298 nM and 0.313 nM
EC50 [14]: 0.438 nM and 0.483 nM and 0.538 nM and 0.73 nM
EC50 [15]: 0.438 nM and 0.483 nM and 0.538 nM and 0.73 nM
EC50 [16]: 0.7 nM and 0.65 nM
Kslow [17]: 0.000414
B1: MoTau01 HuG4K chimeric antibody (antibody, V domains shown)
VH: EVQVVESGGGLVQPKGSLKLSCAASGFTFNTYAMNWVRQAPGKGLEWVARIRSKSNNYATYYADSVKDRFTISRDDSQSMVYLQMNNLKTEDTAMYYCVGGGDFWGQGTALTVSS
VL: DIQMTQSPSSLSASLGERVSLTCRASQEISVYLSWFQQKPDGTIKRLIYGAFTLDSGVPKRFSGSRSGSDYSLTISSLESEDFADYYCLQYVRYPWTFGGGTKLEIK
notes: Mouse variable regions with human IgG4 / kappa constant regions (pHuG4, pHuK); also called chimeric Tau01

B2: MoTau01 mouse antibody (antibody, V domains shown)
VH: B1 VH
VL: B1 VL
notes: Mouse hybridoma antibody; also called mouse Tau01; murine Tau01
binding result [18]: no binding (tested: not printed on the sheet)

EC50 [1]: 0.502 nM
Kd [19]: 1.2 nM
EC50 [3]: 0.84 nM
Kd [6]: 1.24 nM
koff [6]: 0.0249 s⁻¹
kon [6]: 2.02e+07 M⁻¹ s⁻¹
koff [8]: 0.0114 s⁻¹
binding result [20]: no binding
EC50 [9]: 0.628 nM
EC50 [10]: 0.502 nM
EC50 [12]: 0.502 nM
EC50 [14]: 0.73 nM
EC50 [15]: 0.73 nM
Kslow [17]: 0.012
B3: Tau01 HCKB HuG4K (antibody, V domains shown)
VH: LVQLVESGGGLVQPGGSLKLSCAASGFTFNTYAMNWVRQASGKGLEWVGRIRSKSNNYATYYAASVKGRFTISRDDSKSMAYLQMDSLKTEDTAVYYCVGGGDFWGQGTLVTVSS
VL: DIQMTQSPSSLSASVGDRVTITCRASQEISVYLSWFQQKPGKAIKRLIYGAFTLQSGVPSRFSGSRSGSEYTLTISSLQPEDFATYYCLQYVRYPWTFGGGTKVEIK
notes: human IgG4 kappa (HuG4K)
